# Paper PMC5933801, “Cryo-EM structure of infectious bronchitis coronavirus spike protein reveals structural and functional evolution of coronavirus spike proteins” (PLoS Pathogens, 2018)
# Molecular target: the molecule itself
# Assay: cryo-EM structure; IBV spike ectodomain 0.35 mg/ml in 2 mM Tris pH7.2 and 20 mM NaCl, plunge-frozen; pre-fusion state; three-fold noncrystallographic symmetry constraints in refinement
protein,measurement,value
"IBV spike ectodomain (avian infectious bronchitis coronavirus, strain M41) (domain or fragment, glycans N-linked to 20 sites, Spike protein of avian infectious bronchitis coronavirus (IBV) strain M41, GenBank ABI26423.1, ectodomain residues 20-1084; transmembrane anchor and intracellular domain replaced by GCN4 and His6 tags; The structural model holds residues 21-1022 except 702-710; The GCN4 tag is a trimerization tag; also called trimeric IBV spike ectodomain; source: Sf9 insect cells (Bac-to-Bac), harvested from …) LYDSSSYVYYYQSAFRPPNGWHLHGGAYAVVNISSESNNAGSSPGCIVGTIHGGRVVNASSIAMTAPSSGMAWSSSQFCTAHCNFSDTTVFVTHCYKYDGCPITGMLQKNFLRVSAMKNGQLFYNLTVSVAKYPTFKSFQCVNNLTSVYLNGDLVYTSNETTDVTSAGVYFKAGGPITYKVMRKVKALAYFVNGTAQDVILCDGSPRGLLACQYNTGNFSDGFYPFINSSLVKQKFIVYRENSVNTTFTLHNFTFHNETGANPNPSGVQNILTYQTQTAQSGYYNFNFSFLSSFVYKESNFMYGSYHPSCNFRLETINNGLWFNSLSVSIAYGPLQGGCKQSVFSGRATCCYAYSYGGPSLCKGVYSGELDLNFECGLLVYVTKSGGSRIQTATEPPVITRHNYNNITLNTCVDYNIYGRTGQGFITNVTDSAVSYNYLADAGLAILDTSGSIDIFVVQGEYGLTYYKVNPCEDVNQQFVVSGGKLVGILTSRNETGSQLLENQFYIKITNGTRRFRRSITENVANCPYVSYGKFCIKPDGSIATIVPKQLEQFVAPLLNVTENVLIPNSFNLTVTDEYIQTRMDKVQINCLQYVCGNSLDCRDLFQQYGPVCDNILSVVNSIGQKEDMELLNFYSSTKPAGFNTPFLSNVSTGEFNISLLLTTPSSPRRRSFIEDLLFTSVESVGLPTDDAYKNCTAGPLGFLKDLACAREYNGLLVLPPIITAEMQTLYTSSLVASMAFGGITAAGAIPFATQLQARINHLGITQSLLLKNQEKIAASFNKAIGRMQEGFRSTSLALQQIQDVVNKQSAILTETMASLNKNFGAISSVIQEIYQQLDAIQANAQVDRLITGRLSSLSVLASAKQAEHIRVSQQRELATQKINECVKSQSIRYSFCGNGRHVLTIPQNAPNGIVFIHFSYTPDSFVNVTAIVGFCVKPANASQYAIVPANGRGIFIQVNGSYYITARDMYMPRAITAGDIVTLTSCQANYVSVNKTVITTFVDNDDFDFNDELSKWWNDTKHELPDFDKFNYTVPILDIDSEIDRIQGVIQGLNDSLIDLEKLS",stoichiometry N,3
